{
  "source": "patent US20250361312A1",
  "binders": {"B1": {"name": "G1/OX86 (antibody, from another filing, human IgG1, V domains shown)", "VH": "QVQLKESGPGLVQPSQTLSLTCTVSGFSLTGYNLHWVRQPPGKGLEWMGRMRYDGDIYYNSVLKSRLSISRDTSKNQVFLKMNSLQTDDTAIYYCTRDGRGDSFDYWGQGVMVTVSS", "VL": "DIVMTQGALPNPVPSGESASITCRSSQSLVYKDGQTYLNWFLQRPGQSPQLLTYWMSTRASGVSDRFSGSGSGTYFTLKISRVRAEDAGVYYCQQVREYPFTFGSGTKLEIKR"}, "B2": {"name": "FS20m-232-91AA/E2A (bispecific antibody, part only; not given: E2A Fab and upper Fc, human IgG1, part only)", "heavy, part": "GQPREPQVYTLPPSRDELFDPMYYYNQVSLTCLVKGFYPSDIAVEWESNGEPLWDYKTTPPVLDSDGSFFLYSKLTVWRDRWEDGNVFSCSVMHEALHNHYTQKSLSLSPGK"}, "B3": {"name": "FS20m-232-91AA/C9B7W (bispecific antibody, part only; not given: C9B7W Fab and upper Fc, human IgG1, part only)", "heavy, part": "B2 heavy, part"}, "B4": {"name": "FS20m-232-91AA/R84 (bispecific antibody, part only; not given: R84 Fab and upper Fc, human IgG1, part only)", "heavy, part": "B2 heavy, part"}},
  "target": "mouse OX40 receptor, cell-expressed (DO11.10-mOX40) (mouse) (UniProt P47741)",
  "sequence (P47741 20-272)": "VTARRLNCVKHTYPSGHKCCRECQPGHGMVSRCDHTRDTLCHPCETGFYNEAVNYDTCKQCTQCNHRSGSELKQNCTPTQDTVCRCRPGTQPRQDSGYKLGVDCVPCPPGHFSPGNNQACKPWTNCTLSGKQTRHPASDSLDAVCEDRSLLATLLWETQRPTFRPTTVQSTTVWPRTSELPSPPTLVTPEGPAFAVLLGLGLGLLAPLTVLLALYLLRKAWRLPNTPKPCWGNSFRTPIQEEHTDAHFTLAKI",
  "test": "cell-based or functional assay",
  "data": [
    {"binder": "B1", "values": [
      {"measurement": "EC50 of IL-2 release, HPAC cells present, + a-hFc", "result": 0.811, "unit": "nM"},
      {"measurement": "EC50 of IL-2 release, Xlink (anti-hFc)", "result": 15.6, "unit": "nM"},
      {"measurement": "Max response, HPAC cells present, + a-hFc", "result": 17900, "unit": "mIL-2 pg/ml"},
      {"measurement": "Max response, Xlink (anti-hFc)", "result": 16200, "unit": "mIL-2 pg/ml"}
    ]},
    {"binder": "B2", "values": [
      {"measurement": "EC50 of IL-2 release, HPAC cells present, + a-hFc", "result": 0.289, "unit": "nM"},
      {"measurement": "Max response, HPAC cells present, + a-hFc", "result": 18800, "unit": "mIL-2 pg/ml"},
      {"measurement": "Max response, crosslinked by EphA2 on HPAC cells, no crosslinking agent", "result": 11000, "unit": "mIL-2 pg/ml"}
    ]},
    {"binder": "B3", "values": [
      {"measurement": "EC50 of IL-2 release, no added crosslinker (LAG3 co-expressed on T cells)", "result": 0.175, "unit": "nM"},
      {"measurement": "Max response, no added crosslinker (LAG3 co-expressed on T cells)", "result": 9670, "unit": "mIL-2 pg/ml"}
    ]},
    {"binder": "B4", "values": [
      {"measurement": "EC50 of IL-2 release, Xlink (VEGF)", "result": 0.144, "unit": "nM"},
      {"measurement": "EC50 of IL-2 release, no added crosslinker", "result": 29.9, "unit": "nM"},
      {"measurement": "Max response, Xlink (VEGF)", "result": 15100, "unit": "mIL-2 pg/ml"},
      {"measurement": "Max response, no added crosslinker", "result": 16700, "unit": "mIL-2 pg/ml"}
    ]}
  ]
}
